Patent US20240116985A1, “STAPLED PEPTIDES AND METHODS THEREOF” (priority 2020, published 2024)
Starred links: 1 amine or outer side, 2 acyl side, 3 side chain; linkers in the order of their positions; H or OH if unused. Positions of bridges follow the written chain, without caps; N, C: chain ends. Non-standard residues stand in square brackets, D forms with d. Primed or numbered codes have the meaning given here. No end group written: not given here. *: point of attachment. PyrS2″ = (S)-3-amino-1-((pent-4-en-1-yloxy)carbonyl)pyrrolidine-3-carboxylic acid (stapling residue), C=CCCCOC(=O)N1CC[C@@](N[*:1])(C(=O)[*:2])C1; B5(30) = 2-amino-2-(pent-4-en-1-yl)hept-6-enoic acid (2,2-bis(4-pentenyl)glycine, stitching residue), C=CCCCC(CCCC=C)(N[*:1])C(=O)[*:2]; B5(4) = 2,2-bis(4-pentenyl)glycine = 2-amino-2-(pent-4-en-1-yl)hept-6-enoic acid (stitching residue), C=CCCCC(CCCC=C)(N[*:1])C(=O)[*:2]; B5(5) = 2,2-bis(4-pentenyl)glycine, 2-amino-2-(pent-4-en-1-yl)hept-6-enoic acid (stitching residue), C=CCCCC(CCCC=C)(N[*:1])C(=O)[*:2]; TfeGA = (S)-2-amino-3-((carboxymethyl)(2,2,2-trifluoroethyl)amino)propanoic acid, O=C([C@H](CN(CC(=O)[*:3])CC(F)(F)F)N[*:1])[*:2]; PyrS2 = (S)-3-amino-1-((pent-4-en-1-yloxy)carbonyl)pyrrolidine-3-carboxylic acid, C=CCCCOC(=O)N1CC[C@@](N[*:1])(C(=O)[*:2])C1; B5(25) = 2-amino-2-(pent-4-en-1-yl)hept-6-enoic acid (stitching residue), C=CCCCC(CCCC=C)(N[*:1])C(=O)[*:2]; B5(3) = 2,2-bis(4-pentenyl)glycine (stitching residue), C=CCCCC(CCCC=C)(N[*:1])C(=O)[*:2]; B5 = 2-amino-2-(pent-4-en-1-yl)hept-6-enoic acid, C=CCCCC(CCCC=C)(N[*:1])C(=O)[*:2]; ProSAm3 = (allylsulfonyl)-D-proline, C=CCS(=O)(=O)N1CCC[C@@H]1C(=O)*; Phe(3-Ph) = N[C@@H](Cc1cccc(-c2ccccc2)c1)C(=O)O; Phe(3-COOH) = N[C@@H](Cc1cccc(C(=O)O)c1)C(=O)O; Phe(2-CF3) = N[C@@H](Cc1ccccc1C(F)(F)F)C(=O)O; Asp(3,3-Me2) = CC(C)(C(=O)O)[C@H](N)C(=O)O; Asp(3R-OH) = N[C@H](C(=O)O)[C@@H](O)C(=O)O; Phe(2-Cl) = N[C@@H](Cc1ccccc1Cl)C(=O)O; Phe(3-F) = N[C@@H](Cc1cccc(F)c1)C(=O)O; Phe(4-F) = N[C@@H](Cc1ccc(F)cc1)C(=O)O; Bta = N[C@@H](Cc1csc2ccccc12)C(=O)O; Lys(iPr) = CC(C)NCCCC[C@H](N)C(=O)O; αAllylPro = C=CC[C@@]1(C(=O)O)CCCN1; Azidoacetyl = [N-]=[N+]=NCC(=O)*; tBuAla = CC(C)(C)C[C@H](N)C(=O)O; 3Thi = N[C@@H](Cc1ccsc1)C(=O)O; hSer = N[C@@H](CCO)C(=O)O; 2F3MeF″ = Phe derivative; Ac3c = NC1(C(=O)O)CC1; ClAc = O=C(CCl)*

Tests used:
[1] = biological target: full-length beta-Catenin (Uniprot ID P35222) (Homo sapiens (Human)) (UniProt P35222); test: fluorescence polarization competition vs 5FAM-TCF4(10-53) on full-length beta-catenin
[2] = biological target: full-length beta-Catenin (Uniprot ID P35222) (Homo sapiens (Human)) (UniProt P35222); test: fluorescence polarization competition; 10 nM full-length beta-catenin + 10 nM 5FAM-TCF4(10-53) probe
Target sequence in this assay (P35222 whole entry): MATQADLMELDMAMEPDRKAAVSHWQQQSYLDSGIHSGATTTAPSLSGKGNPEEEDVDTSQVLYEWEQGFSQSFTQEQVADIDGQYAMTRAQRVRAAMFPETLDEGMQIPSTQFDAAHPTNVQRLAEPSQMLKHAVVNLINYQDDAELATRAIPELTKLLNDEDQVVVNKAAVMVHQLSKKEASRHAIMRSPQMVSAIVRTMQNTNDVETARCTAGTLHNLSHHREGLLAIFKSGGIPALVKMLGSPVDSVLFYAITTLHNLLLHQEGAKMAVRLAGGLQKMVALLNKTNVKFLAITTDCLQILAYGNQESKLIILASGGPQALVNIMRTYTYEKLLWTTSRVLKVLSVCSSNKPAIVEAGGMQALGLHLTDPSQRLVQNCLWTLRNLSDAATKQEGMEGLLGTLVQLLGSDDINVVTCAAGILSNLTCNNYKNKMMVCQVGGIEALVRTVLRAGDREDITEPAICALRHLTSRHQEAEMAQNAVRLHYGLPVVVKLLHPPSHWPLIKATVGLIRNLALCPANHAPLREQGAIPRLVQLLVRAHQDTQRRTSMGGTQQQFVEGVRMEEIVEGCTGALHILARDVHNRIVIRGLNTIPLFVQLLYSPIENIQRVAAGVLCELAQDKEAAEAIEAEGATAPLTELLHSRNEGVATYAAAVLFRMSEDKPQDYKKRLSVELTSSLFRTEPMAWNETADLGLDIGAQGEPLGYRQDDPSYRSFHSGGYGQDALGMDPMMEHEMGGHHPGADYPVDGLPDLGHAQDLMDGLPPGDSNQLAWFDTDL

[3] = biological target: full-length beta-Catenin (Uniprot ID P35222) (Homo sapiens (Human)) (UniProt P35222); test: fluorescence polarization competition; full-length beta-catenin, competitor 5FAM-TCF4(10-53)

In the case of Ac-[αAllylPro]D[tBuAla][B5(4)]DDAAFN[PyrS2″][3Thi][Bta]K(Azidoacetyl)-NH2 (staple 1-4, 4-11) [I-878], the EC50 [1] is reported as 6 nM.

Binder Ac-[αAllylPro]D[tBuAla][B5(4)]DDK(Azidoacetyl)AFN[PyrS2″][3Thi][Bta]Q-NH2 (staple 1-4, 4-11) [I-879] has an EC50 [1] of 6 nM.

Ac-[αAllylPro]DK(Azidoacetyl)[B5(4)]DDAAFN[PyrS2″][3Thi][Bta]Q-NH2 (staple 1-4, 4-11) [I-880] showed an EC50 [1] of 6 nM.

Binder Ac-[αAllylPro]D[tBuAla][B5]D[TfeGA]AAFN[PyrS2][3Thi][Bta]Y-NH2 (staple 1-4, 4-11; also: earlier-eluting staple isomer composition) [I-952] has an EC50 [2] of 1210 nM and an IC50 [1] of 1210 nM.

For Ac-[αAllylPro]D[tBuAla][B5]D[TfeGA]AAFN[PyrS2][3Thi][Bta]Y-NH2 (staple 1-4, 4-11; also: later-eluting staple isomer composition) [I-953], the EC50 [2] was 1460 nM and the IC50 [1] was 1460 nM.

Ac-[αAllylPro]D[tBuAla][B5]D[TfeGA]AAFS[PyrS2][3Thi][Bta]S-NH2 (staple 1-4, 4-11; also: earlier-eluting staple isomer composition) [I-954] gave an EC50 [2] of 900 nM and an IC50 [1] of 900 nM.

With Ac-[αAllylPro]D[tBuAla][B5]D[TfeGA]AAFS[PyrS2][3Thi][Bta]S-NH2 (staple 1-4, 4-11; also: later-eluting staple isomer composition) [I-955] the EC50 [2] was 1200 nM and the IC50 [1] was 1200 nM.

Binder Ac-[αAllylPro]D[tBuAla][B5]D[TfeGA]AAFT[PyrS2][3Thi][Bta]S-NH2 (staple 1-4, 4-11; also: earlier-eluting staple isomer composition) [I-956] has an EC50 [2] of 1090 nM and an IC50 [1] of 1090 nM.

Ac-[αAllylPro]D[tBuAla][B5]D[TfeGA]AAFT[PyrS2][3Thi][Bta]S-NH2 (staple 1-4, 4-11; also: later-eluting staple isomer composition) [I-957] was tested, and the EC50 [2] was 1430 nM and the IC50 [1] was 1430 nM.

Work on Ac-[αAllylPro]D[tBuAla][B5]D[TfeGA]AAF[hSer][PyrS2][3Thi][Bta]S-NH2 (staple 1-4, 4-11; also: earlier-eluting staple isomer composition) [I-958] yielded an EC50 [2] of 606 nM and an IC50 [1] of 606 nM.

Ac-[αAllylPro]D[tBuAla][B5]D[TfeGA]AAF[hSer][PyrS2][3Thi][Bta]S-NH2 (staple 1-4, 4-11; also: later-eluting staple isomer composition) [I-959] showed an EC50 [2] of 881 nM and an IC50 [1] of 881 nM.

In the case of Ac-[αAllylPro]D[tBuAla][B5(25)]D[TfeGA]AAFF[PyrS2″][3Thi][Bta]S-NH2 (staple 1-4, 4-11; also: earlier-eluting HPLC staple isomer) [I-962], the EC50 [2] is reported as 407 nM and the IC50 [1] is reported as 407 nM.

Ac-[αAllylPro]D[tBuAla][B5(4)]D[TfeGA][Lys(iPr)]AFT[PyrS2″][3Thi][Bta]L-NH2 (staple 1-4, 4-11; also: -CH=CH- in each staple reduced to -CH2-CH2-) [I-1766] gave an IC50 [3] of 267 nM.

For Ac-[αAllylPro]D[tBuAla][B5(4)]D[TfeGA][Lys(iPr)]AFL[PyrS2″][3Thi][Bta]F-NH2 (staple 1-4, 4-11; also: -CH=CH- in each staple reduced to -CH2-CH2-) [I-1767], the IC50 [3] was 327 nM.

Ac-[αAllylPro]D[tBuAla][B5(4)]D[TfeGA][Lys(iPr)]AFL[PyrS2″][3Thi][Bta]V-NH2 (staple 1-4, 4-11; also: -CH=CH- in each staple reduced to -CH2-CH2-) [I-1769] gave an IC50 [3] of 419 nM.

Ac-[αAllylPro]D[tBuAla][B5(5)]D[TfeGA][Lys(iPr)]AFT[PyrS2″][3Thi][Bta]V-NH2 (staple 1-4, 4-11; also: -CH=CH- in each staple reduced to -CH2-CH2-) [I-1770] showed an IC50 [3] of 175 nM.

For Ac-[αAllylPro]D[tBuAla][B5(4)][Asp(3,3-Me2)][TfeGA]AAFL[PyrS2″][3Thi][Bta]Q-NH2 (staple 1-4, 4-11) [I-1771], the IC50 [3] was 209 nM.

Work on Ac-[αAllylPro]D[tBuAla][B5(5)]NTAAFN[PyrS2″][3Thi]WQ-NH2 (staple 1-4, 4-11; also: separately listed staple isomer composition) [I-1876] yielded an IC50 [1] of 1340 nM.

Work on Ac-[αAllylPro]D[tBuAla][B5(5)]NTAAFN[PyrS2″][3Thi]WQ-NH2 (staple 1-4, 4-11; also: separately listed staple isomer composition) [I-1877] yielded an IC50 [1] of 1520 nM.

Binder Ac-[αAllylPro]D[tBuAla][B5(5)]NTAAFN[PyrS2″][3Thi][Bta]V-NH2 (staple 1-4, 4-11; also: separately listed staple isomer composition) [I-1878] has an IC50 [1] of 458 nM.

Ac-[αAllylPro]D[tBuAla][B5(30)]NTAAFN[PyrS2″][3Thi][Bta]V-NH2 (staple 1-4, 4-11; also: later-eluting HPLC isomer) [I-1879] showed an IC50 [1] of 567 nM.

Work on Ac-[αAllylPro]D[tBuAla][B5(30)]NTAAFN[PyrS2][3Thi][Bta]L-NH2 (staple 1-4, 4-11; also: earlier-eluting HPLC isomer) [I-1880] yielded an IC50 [1] of 868 nM.

Ac-[αAllylPro]D[tBuAla][B5(30)]NTAAFN[PyrS2][3Thi][Bta]L-NH2 (staple 1-4, 4-11; also: later-eluting HPLC isomer) [I-1881] was tested, and the IC50 [1] was 743 nM.

Ac-[αAllylPro]D[tBuAla][B5(30)]NTAAFR[PyrS2][3Thi][Bta]Q-NH2 (staple 1-4, 4-11; also: earlier-eluting HPLC isomer) [I-1882] was tested, and the IC50 [1] was 397 nM.

Work on Ac-[αAllylPro]D[tBuAla][B5(30)]NTAAFR[PyrS2][3Thi][Bta]Q-NH2 (staple 1-4, 4-11; also: later-eluting HPLC isomer) [I-1883] yielded an IC50 [1] of 884 nM.

Binder ClAc-[αAllylPro]D[tBuAla][B5(3)]D[Phe(3-COOH)]AAFL[PyrS2″][Phe(2-Cl)][Bta]A-NH2 (staple 1-4, 4-11) [I-2253] has an IC50 [3] of 189 nM.

For Ac-[αAllylPro]D[tBuAla][B5(3)]D[Phe(3-COOH)]AAFL[PyrS2″][Phe(3-Ph)][2F3MeF″]Q-NH2 (staple 1-4, 4-11) [I-2256], the IC50 [3] was 8410 nM.

In the case of Ac-[αAllylPro][Asp(3R-OH)][tBuAla][B5(3)]D[Phe(3-COOH)]AAFL[PyrS2″][3Thi][Bta]A-NH2 (staple 1-4, 4-11) [I-2258], the IC50 [3] is reported as 272 nM.

Binder Ac-[αAllylPro]D[tBuAla][B5(3)]D[Phe(3-COOH)]AAFL[PyrS2″][Phe(3-F)][Bta]A-NH2 (staple 1-4, 4-11) [I-2261] has an IC50 [3] of 34 nM.

Binder Ac-[αAllylPro]D[tBuAla][B5(3)]D[Phe(3-COOH)]AAFL[PyrS2″][Phe(4-F)][Bta]A-NH2 (staple 1-4, 4-11) [I-2263] has an IC50 [3] of 47 nM.

For [ProSAm3]D[tBuAla][B5(3)]D[TfeGA]AAFL[PyrS2″][3Thi][Bta]Q-NH2 (staple (positions not given here); staple 4-11; not fully specified (bridges)) [I-2266], the IC50 [3] was 266 nM.

B1: I-2267 (peptide)
peptide: [ProSAm3]D[tBuAla][B5(3)]D[TfeGA]AAFL[PyrS2″][3Thi][Bta]Q-NH2
modifications: staple (positions not given here); staple 4-11; not fully specified (bridges); also: staple double bonds reduced to -CH2-CH2-
For B1, the IC50 [3] was 499 nM.

In the case of Ac-[αAllylPro]D[tBuAla][B5(5)]D[Phe(3-COOH)]AAFL[PyrS2″][Phe(2-CF3)][Bta]QL[Ac3c]-NH2 (staple 1-4, 4-11) [I-2389], the IC50 [3] is reported as 72 nM.
